Test results as given in patent US20070274969A1 (published 2007).

B1: human Bub1, endogenous (enzyme)
chain: MDTPENVLQMLEAHMQSYKGNDPLGEWERYIQWVEENFPENKEYLITLLEHLMKEFLDKKKYHNDPRFISYCLKFAEYNSDLHQFFEFLYNHGIGTLSSPLYIAWAGHLEAQGELQHASAVLQRGIQNQAEPREFLQQQYRLFQTRLTETHLPAQARTSEPLHNVQVLNQMITSKSNPGNNMACISKNQGSELSGVISSACDKESNMERRVITISKSEYSVHSSLASKVDVEQVVMYCKEKLIRGESEFSFEELRAQKYNQRRKHEQWVNEDRHYMKRKEANAFEEQLLKQKMDELHKKLHQVVETSHEDLPASQERSEVNPARMGPSVGSQQELRAPCLPVTYQQTPVNMEKNPREAPPVVPPLANAISAALVSPATSQSIAPPVPLKAQTVTDSMFAVASKDAGCVNKSTHEFKPQSGAEIKEGCETHKVANTSSFHTTPNTSLGMVQATPSKVQPSPTVHTKEALGFIMNMFQAPTLPDISDDKDEWQSLDQNEDAFEAQFQKNVRSSGAWGVNKIISSLSSAFHVFEDGNKENYGLPQPKNKPTGARTFGERSVSRLPSKPKEEVPHAEEFLDDSTVWGIRCNKTLAPSPKSPGDFTSAAQLASTPFHKLPVESVHILEDKENVVAKQCTQATLDSCEENMVVPSRDGKFSPIQEKSPKQALSSHMYSASLLRLSQPAAGGVLTCEAELGVEACRLTDTDAAIAEDPPDAIAGLQAEWMQMSSLGTVDAPNFIVGNPWDDKLIFKLLSGLSKPVSSYPNTFEWQCKLPAIKPKTEFQLGSKLVYVHHLLGEGAFAQVYEATQGDLNDAKNKQKFVLKVQKPANPWEFYIGTQLMERLKPSMQHMFMKFYSAHLFQNGSVLVGELYSYGTLLNAINLYKNTPEKVMPQGLVISFAMRMLYMIEQVHDCEIIHGDIKPDNFILGNGFLEQDDEDDLSAGLALIDLGQSIDMKLFPKGTIFTAKCETSGFQCVEMLSNKPWNYQIDYFGVAATVYCMLFGTYMKVKNEGGECKPEGLFRRLPHLDMWNEFFHVMLNIPDCHHLPSLDLLRQKLKKVFQQHYTNKIRALRNRLIVLLLECKRSRK
notes: mature; also called hBub1; Bub1 (U2OS cells)
B2: mouse Bub1, endogenous (enzyme)
chain: MDNLENVFRMFEAHMQSYTGNDPLGEWESFIKWVEENFPDNKEYLMTLLEHLMKEFLHKKNYHNDSRFINYCLKFAEYNSDRHQFFEFLYNQGIGTKSSYIYMSWAGHLEAQGELQHASAIFQTGIHNEAEPKELLQQQYRLFQARLTGIHLPAQATTSEPLHSAQILNQVMMTNSSPEKNSACVPKSQGSECSGVASSTCDEKSNMEQRVIMISKSECSVSSSVAPKPEAQQVMYCKEKLIRGDSEFSFEELRAQKYNQRKKHEQWVSEDRNYMKRKEANAFEEQLLKQKMDELHKKLHQVVELSHKDLPASENRPDVSLVCVGQNTCSQQELRGPSLSSISHQTSESSGEKPQEEPSVPLMVNAVNSTLLFPAANLPALPVPVSGQSLTDSRCVNQSVHEFMPQCGPETKEVCETNKVASINDFHTTPNTSLGMVQGTPCKVQPSPTVHTKEALGFIMDMFQAPTLPDISDDKDEWPSLDQNEDAFEAQFQKNAVSSGDWGVKKIMTLSSAFPIFEDGNKENYGLPQPKNKPLGARTFGERSLSKYSSRSNEMPHTDEFMDDSTVCGIRCNKTLAPSPKSIGDFTSAAQLSSTPFHKFPADLVQIPEDKENVVATQYTHMALDSCKENIVDLSKGRKLGPIQEKISASLPCPSQPATGGLFTQEAVFGLEAFKCTGIDHATVEDLSDANAGLQVECVQTLGNVNAPSFTVENPWDDELILKLLSGLSKPVTSYSNTFEWQSKLPAIKTKTEYQLGSLLVYVNHLLGEGAFAQVFEAIHGDVRNAKSEQKCILKVQRPANSWEFYIGMQLMERLKPEVHHMFIKFYSAHLFKNGSILVGELYSYGTLLNVINLYKNTSEKVMPQALVLTFAIRMLYMVEQVHSCEIIHGDIKPDNFILGHRFLEQADEDLATGLALIDLGQSIDMKLFPKGTVFTGKCETSGFQCPEMLSNKPWNYQIDYFGVAATIYCMLFGSYMKVKNEGGVWKPEGLFRRLPHLDMWEEFFHIMLNIPDCHNLPSLDFLRQNMKKLLEQQYSNKIKTLRNRLIVMLSEYKRSRK
notes: mature; also called mBub1; Bub1 (NIH3T3 cells)
B3: T antigen deletion mutant dl89-97 (other)
chain: MDKVLNREESLQLMDLLGLERSAWGNIPLMRKAYLKKCKEFHPDKGGDEEKMKKMNTLYKKMEDGVKYAHQPDFGGFWDATEIPTYGTFNEENLFCSEEMPSSDDEATADSQHSTPPKKKRKVEDPKDFPSELLSFLSHAVFSNRTLACFAIYTTKEKAALLYKKIMEKYSVTFISRHNSYNHNILFFLTPHRHRVSAINNYAQKLCTFSFLICKGVNKEYLMYSALTRDPFSVIEESLPGGLKEHDFNPEEAEETKQVSWKLVTEYAMETKCDDVLLLLGMYLEFQYSFEMCLKCIKKEQPSHYKYHEKYYANAAIFADSKNQKTICQQAVDTVLAKKRVDSLQLTREQMLTNRFNDLLDRMDIMFGSTGSADIEEWMAGVAWLHCLLPKMDSVVYDFLKCMVYNIPKKRYWLFKGPIDSGKTTLAAALLELCGGKALNVNLPLDRLNFELGVAIDQFLVVFEDVKGTGGESRDLPSGQGINNLDNLRDYLDGSVKVNLEKKHLNKRTQIFPPGIVTMNEYSVPKTLQARFVKQIDFRPKDYLKHCLERSEFLLEKRIIQSGIALLLMLIWYRPVAEFAQSIQSRIVEWKERLDKEFSLSVYQKMKFNVAMGIGVLDWLRNSDDDDEDSQENADKNEDGGEKNMEDSGHETGIDSQSQGSFQAPQSSQSVHDHNQPYHICRGFTCFKKPPTPPPEPET

Legend:
T antigen mutant D44N = target: T1, T antigen mutant D44N (SV40, UniProt P03070 1-708); test: co-immunoprecipitation from U2OS stable lines
T1 construct: Defective DnaJ domain

[1] = target: T2, SV40 large T antigen, wild-type (SV40, UniProt P03070 1-708); test: co-immunoprecipitation from U2OS/T cell lysates
T2 construct: also called wild-type T antigen; T Ag

[2] = target: T2, SV40 large T antigen, wild-type; test: co-immunoprecipitation from NIH3T3/T cell lysates
human Bub1, endogenous = target: B1; test: co-immunoprecipitation from U2OS stable lines

B1
binding result (T antigen mutant D44N): binds
binding result [1]: binds

B2
binding result [2]: binds

B3
binding result (human Bub1, endogenous): no binding
